The target of experiment [1] is T1, CD96 extracellular region with His tag (CD96-His) (human, UniProt P40200 22-519).
T1 construct: also called CD96-ECD-His; Bio-CD96-His (biotin-labelled form)
T1 sequence: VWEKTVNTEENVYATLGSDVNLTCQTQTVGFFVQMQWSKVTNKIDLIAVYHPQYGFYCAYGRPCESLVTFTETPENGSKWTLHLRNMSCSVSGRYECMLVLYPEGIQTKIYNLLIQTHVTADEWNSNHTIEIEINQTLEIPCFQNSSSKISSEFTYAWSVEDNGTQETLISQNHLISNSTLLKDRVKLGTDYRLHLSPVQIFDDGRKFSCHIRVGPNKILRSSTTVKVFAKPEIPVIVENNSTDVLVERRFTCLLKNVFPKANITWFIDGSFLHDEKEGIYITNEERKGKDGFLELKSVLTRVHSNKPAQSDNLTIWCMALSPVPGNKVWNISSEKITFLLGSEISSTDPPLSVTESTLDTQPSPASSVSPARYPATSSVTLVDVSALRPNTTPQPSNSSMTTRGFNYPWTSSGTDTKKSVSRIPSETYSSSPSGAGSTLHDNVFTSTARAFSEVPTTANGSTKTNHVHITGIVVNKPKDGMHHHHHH
As to the kind of experiment: SPR (Biacore), antibody captured, CD96-ECD-His as mobile phase. The source says:
Protein A biosensor chip was used to capture antibodies to be tested, then CD96 antigen was flowed on the surface of the chip, and real time reaction signal was detected by Biacore to obtain the binding and dissociation curve. After the dissociation of each experimental cycle was completed, the biosensor chip was washed and regenerated with a glycine-hydrochloric acid regeneration solution (pH 1.5).
(In general: In SPR one partner is held on a chip, and binding of the other changes the refractive index at the surface.)

Experiment [2] addresses T1, CD96 extracellular region with His tag …. As to the kind of experiment: ELISA, CD96-His coated. The procedure:
The binding capacity of the anti-CD96 antibody was tested by ELISA to determine the binding of the antibody to human CD96 protein. The His-tagged CD96 fusion protein was used to coat the microtiter plate, and the intensity of the signal after adding with the antibody was used for evaluating the binding activity of the antibody and CD96. The specific experimental method is as follows:
CD96-His with the sequence of SEQ ID NO: 4 prepared in Embodiment 1 was diluted to a concentration of 2 μg/ml with PBS buffer (Shanghai Yuanpei Biotechnology Co., Ltd. Cat No. B320), pH 7.4, added to a 96-well microtiter plate (Corning, Cat No. CLS3590-100EA) at a volume of 50 μl/well, and placed in an incubator at 37° C. for 2 hours. After discarding the liquid, 250 μl/well of 5% skim milk (BD, Cat No. 232100) blocking solution diluted with PBS was added, and the plate was incubated at 37° C. for 2.5 hours or at 4° C. overnight (16-18 hours) for blocking. After blocking, the blocking solution was discarded, and the plate was washed 4 times with PBST buffer (pH 7.4 PBS containing 0.05% tween-20). 50 μl/well of different concentrations of the antibodies to be tested (hybridoma purification antibody or humanized antibody) diluted with sample dilution was added, and the plate was incubated in an incubator at 37° C. for 1 hour. […] After washing the plate 4 times with PBST, 50 μl/well of TMB chromogenic substrate (KPL, Cat No. 52-00-03) was added, and the plate was incubated at room temperature for 5-15 minutes, followed by adding 50 μl/well of 1M H₂SO₄ to stop the reaction. The absorption value was read at 450 nm with a NOVOStar microplate reader, and the EC50 value of the binding of CD96 antibody to human CD96 was calculated (see Table 13).
A general note: In an ELISA, binding on a coated surface is turned into a signal by an enzyme label.

In experiment [3] the target is T2, Full-length human CD96 on CHO-S cells (human, UniProt P40200 22-585).
T2 construct: also called CD96-CHOs; hCD96-CHOs
T2 sequence: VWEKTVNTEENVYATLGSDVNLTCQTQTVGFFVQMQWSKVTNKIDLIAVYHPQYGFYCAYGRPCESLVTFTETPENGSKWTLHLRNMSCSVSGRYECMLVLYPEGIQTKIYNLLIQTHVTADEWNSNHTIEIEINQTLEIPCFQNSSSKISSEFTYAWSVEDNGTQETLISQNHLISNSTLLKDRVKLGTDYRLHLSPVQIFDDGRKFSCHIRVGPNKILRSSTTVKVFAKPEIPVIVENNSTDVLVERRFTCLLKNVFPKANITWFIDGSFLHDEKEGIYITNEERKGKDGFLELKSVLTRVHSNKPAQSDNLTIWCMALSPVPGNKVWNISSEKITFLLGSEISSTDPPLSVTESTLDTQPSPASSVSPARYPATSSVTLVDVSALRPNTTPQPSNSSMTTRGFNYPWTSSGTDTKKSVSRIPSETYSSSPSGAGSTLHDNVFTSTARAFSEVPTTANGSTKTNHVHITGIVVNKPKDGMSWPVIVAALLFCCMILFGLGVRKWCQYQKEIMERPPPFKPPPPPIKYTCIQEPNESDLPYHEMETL
In words: cell ELISA, fixed CD96-overexpressing CHO-S cells. Here is the method:
The binding capacity of the anti-CD96 antibody was tested by binding experiments of the antibody to human CD96 protein overexpressing CHO-S cells. The full-length CD96 plasmid was transfected into CHO-S cells by electrotransfection, and cells were then screened for two weeks under pressure for the detection of the expression of CD96. After the over-expressing cells were fixed at the bottom of the 96-well plate, the density of the signal after adding the antibody was used to judge the binding activity of the antibody to CD96 overexpressing CHO-S cells. The specific experimental method is as follows:
The cells were seeded at a density of 9×10⁴/100 μL/well in a 96-well plate and cultured overnight. After aspirating the supernatant, the plate was washed once with PBS, subsequently, 100 μl/well immunostaining fixation solution (Biyuntian, P0098) was added and fixed for one hour at room temperature, and the plate was washed three times with PBS. Once the liquid was discarded, 250 μl/well of 5% skim milk (BD, 232100) blocking solution diluted with PBS was added, and the plate was blocked in an incubator at 37° C. for 2.5 hours. After blocking, the blocking solution was discarded, the plate was washed 4 times with PBST buffer (pH 7.4 PBS containing 0.05% tween-20), followed by diluting 50 μl/well of different concentrations of the antibodies (hybridoma purification antibody or humanized antibody) to be tested the plate was incubated in an incubator at 37° C. for 2 hours. After incubation, the plate was wash 4 times with PBST. […] After washing the plate 4 times with PBST, 50 μl/well of TMB chromogenic substrate (KPL, Cat No. 52-00-03) was added, the plate was incubated at room temperature for 10-25 min, followed by adding 50 μl/well of 1M H₂SO₄ to stop the reaction. The absorption value was read at 450 nm with a NOVOStar microplate reader, and the EC50 value of the CD96 antibodies to CD96 overexpressing CHO-S cells was calculated (see FIG. 1 and Table 15).

B1: h1719-007 (antibody, V domains shown)
VH: EVTLKESGPVLVKPTETLTLTCTVSGFSLSSYGVSWVRQPPGKGLEWLGVIWGDGNTNYHSVLISRLTISKDTSKSQVVLTLTNMDPVDTATYYCAKQNYYGSRYGYPLDYWGQGTTVTVSS
VL: DIQMTQSPSSVSASVGDRVTITCKATQDVGTAVAWYQQKPGKAPKLLIYWASTRHTGVPSRFSGSGSGTDFTLTISSLQPEDFATYYCQQYGSSVLTFGGGTKVEIK
notes: Only variable regions are tied to this name
Broadly, the Kd is the concentration at which binding is half-saturated. Higher therefore signals weaker binding. In experiment [1], B1 registered a Kd of 25.5 nM.

B2: h1719-008 (antibody, V domains shown)
VH: EVTLKESGPVLVKPTETLTLTCTVSGFSLSSYGVSWVRQPPGKGLEWLGVIWGDGNTNYHSVLISRLTISKDTSKSQVVLTLTNMDPVDTATYYCAKNYYYGSRYGYPLDYWGQGTTVTVSS
VL: DIQMTQSPSSVSASVGDRVTITCKATQDVGTAVAWYQQKPGKAPKLLIYWASTRHTGVPSRFSGSGSGTDFTLTISSLQPEDFATYYCQQYGSSVLTFGGGTKVEIK
notes: as for B1
B2 showed a Kd in experiment [1] of 17.6 nM.

B3: h1719-016 (antibody, V domains shown)
VH: EVTLKESGPVLVKPTETLTLTCTVSGFSLSSYGVSWVRQPPGKGLEWLGVIWGDGNTNYHSVLISRLTISKDTSKSQVVLTLTNMDPVDTATYYCAKQNYYGSRYGYPIDYWGQGTTVTVSS
VL: DIQMTQSPSSVSASVGDRVTITCKATQDVGTAVAWYQQKPGKSPKLLIYWASTRHTGVPERFSGSGSGTDFTLTISSLQPEDFATYFCQQYGSSVLTFGGGTKVEIK
notes: as for B1
Turning to B3, in experiment [1], binding was put at a Kd of 90.7 nM.

B4: h1719-013 (antibody, V domains shown)
VH: EVTLKESGPVLVKPTETLTLTCTVSGFSLSSYGVSWVRQPPGKGLEWLGVIWGDGNTNYHSVLISRLTISKDTSKSQVVLTLTNMDPVDTATYYCAKQNYYGSRYGYPLDYWGQGTTVTVSS
VL: DIQMTQSPSSVSASVGDRVTITCKATQDVGTAVAWYQQKPGKSPKLLIYWASTRHTGVPERFSGSGSGTDFTLTISSLQPEDFATYFCQQYGSSVLTFGGGTKVEIK
notes: as for B1
In experiment [1], B4 had a Kd of 19.8 nM.

B5: h1722-005 (antibody, V domains shown)
VH: EVQLVQSGAEVKKPGSSVKVSCKASGGTFSDYWMHWVRQAPGQGLEWMGMLHPNSGTTSFNEKFKIRVTITADKSTSTAYMELSSLRSEDTAVYYCARDYSGPFAYWGQGTLVTVSS
VL: DIQMTQSPSSLSASVGDRVTITCSASSSVNYIHWYQQKPGKAPKRWIYDTSKLASGVPSRFSGSGSGTDFTLTISSLQPEDFATYYCQQWRSNPLTFGQGTKLEIK
notes: as for B1
As usually defined, the EC50 is the concentration needed to bring the measured effect to its halfway point. As to B5, the EC50 in experiment [2] was found to be 0.072 nM; in experiment [3] it was 0.045 nM. In experiment [1], this molecule yielded a Kd of 9.87 nM.

B6: h1722-008 (antibody, V domains shown)
VH: EVQLVQSGAEVKKPGSSVKVSCKASGNTFSDYWMHWVKQAPGQGLEWIGMLHPNSGTTSFNEKFKIRTTITIDKSTSTAYMELSSLRSEDTAVYYCASDYSGPFAYWGQGTLVTVSS
VL: DIQMTQSPSSLSASVGDRVTITCSASSSVNYIHWYQQKPGKAPKRWIYDTSKLASGVPSRFSGSGSGTDFTLTISSLQPEDFATYYCQQWRSNPLTFGQGTKLEIK
notes: as for B1
For the molecule B6, in experiment [1], the Kd was determined as 1 nM.

B7: h1722-011 (antibody, V domains shown)
VH: EVQLVQSGAEVKKPGSSVKVSCKASGGTFSDYWMHWVKQAPGQGLEWIGMLHPNSGTTSFNEKFKIRVTITIDKSTSTAYMELSSLRSEDTAVYYCASDYSGPFAYWGQGTLVTVSS
VL: DIQLTQSPSSLSASVGDRVTITCSASSSVNYIHWYQQKPGKAPKRWIFDTSKLASGVPSRFSGSGSGTDYTLTISSLQPEDFATYYCQQWRSNPLTFGQGTKLEIK
notes: as for B1
In the case of B7, the Kd in experiment [1] worked out at 0.948 nM.

B8: h1722-012 (antibody, V domains shown)
VH: EVQLVQSGAEVKKPGSSVKVSCKASGNTFSDYWMHWVKQAPGQGLEWIGMLHPNSGTTSFNEKFKIRTTITIDKSTSTAYMELSSLRSEDTAVYYCASDYSGPFAYWGQGTLVTVSS
VL: DIQLTQSPSSLSASVGDRVTITCSASSSVNYIHWYQQKPGKAPKRWIFDTSKLASGVPSRFSGSGSGTDYTLTISSLQPEDFATYYCQQWRSNPLTFGQGTKLEIK
notes: as for B1
In experiment [1], B8 had a Kd of 0.781 nM.

B9: h1722-009 (antibody, V domains shown)
VH: EVQLVQSGAEVKKPGSSVKVSCKASGGTFSDYWMHWVRQAPGQGLEWMGMLHPNSGTTSFNEKFKIRVTITADKSTSTAYMELSSLRSEDTAVYYCARDYSGPFAYWGQGTLVTVSS
VL: DIQLTQSPSSLSASVGDRVTITCSASSSVNYIHWYQQKPGKAPKRWIFDTSKLASGVPSRFSGSGSGTDYTLTISSLQPEDFATYYCQQWRSNPLTFGQGTKLEIK
notes: as for B1
B9 had a Kd in experiment [1] of 4.55 nM.

These data come from US20200347130A1 (JIANGSU HENGRUI MEDICINE, published 2020).
